B1: Group I clone 1 (random region) (ssRNA)
RNA: GGGAGACAAGACUAGACGCUCAACUUUCCUAGCGCACAUGCGCACCUCUAUGCGUAAUACGAACGUUGACGUUCGACAUGAGACUCACAACAGUUCCCUUUAGUGAGGGUUAAUU
modifications: 2'-F pyrimidines
B2: Group I clone 3 (random region) (ssRNA)
RNA: GGGAGACAAGACUAGACGCUCAACGUUCCUAACGCACAUGCGCACCUCUAUGCGUAAUACGAACGUUGGCGUUCGACAUGAGACUCACAACAGUUCCCUUUAGUGAGGGUUAAUU
modifications: 2'-F pyrimidines
B3: Group I clone 12 (random region) (ssRNA)
RNA: GGGAGACAAGACUAGACGCUCAACUUUCCUAGCGCACAUGCGCACCUCUAUGCGUAAUACGAACGUCGGCGUUCGACAUGAGACUCACAACAGUUCCCUUUAGUGAGGGUUAAUU
modifications: 2'-F pyrimidines
B4: Group I clone 15 (random region) (ssRNA)
RNA: GGGAGACAAGACUAGACGCUCAACUUUCCUAGCGCAUAUGCGCACCUAUAUGCGUAAUACGAACGUUGGCGUUCGACAUGAGACUCACAACAGUUCCCUUUAGUGAGGGUUAAUU
modifications: 2'-F pyrimidines
B5: Group I clone 5 (random region) (ssRNA)
RNA: GGGAGACAAGACUAGACGCUCAACUUUCCUAACGCACACGCGCACCUCUAUGCGUAAUACGAACGUUGGCGUUCGACAUGAGACUCACAACAGUUCCCUUUAGUGAGGGUUAAUU
modifications: 2'-F pyrimidines
B6: Group I clone 23 (random region) (ssRNA)
RNA: GGGAGACAAGACUAGACGCUCAACUUUCCUAACGCAUAUGCGCACCUCUAUGCGUAAUACGAACGUUGACGUUCGACAUGAGACUCACAACAGUUCCCUUUAGUGAGGGUUAAUU
modifications: 2'-F pyrimidines
B7: Group I clone 26 (random region) (ssRNA)
RNA: GGGAGACAAGACUAGACGCUCAACUUUCCUAACGCAUAUGUGCACCUCUAUGCGUAAUACGAACGUUGACGUUCGACAUGAGACUCACAACAGUUCCCUUUAGUGAGGGUUAAUU
modifications: 2'-F pyrimidines
B8: Group I clone 7 (random region) (ssRNA)
RNA: GGGAGACAAGACUAGACGCUCAACUUUCCUAGCGCACAUGCGCACCUCUAUGCGUAAUACGAACGUUGGCGUUCGACAUGAGACUCACAACAGUUCCCUUUAGUGAGGGUUAAUU
modifications: 2'-F pyrimidines
B9: Group I clone 24 (random region) (ssRNA)
RNA: GGGAGACAAGACUAGACGCUCAACUUUCCUAGUGCAUAUGUGCACCUCUAUGCGUAAUACGAACGUUGGCGUUCGACAUGAGACUCACAACAGUUCCCUUUAGUGAGGGUUAAUU
modifications: 2'-F pyrimidines
B10: Group I clone 6 (random region) (ssRNA)
RNA: GGGAGACAAGACUAGACGCUCAACUGUCCUAACGCACACGCGCACCUCUAUGCGUAAUACGAACGUUGGCGUUCGACAUGAGACUCACAACAGUUCCCUUUAGUGAGGGUUAAUU
modifications: 2'-F pyrimidines
B11: Group I clone 14 (random region) (ssRNA)
RNA: GGGAGACAAGACUAGACGCUCAACUUUCCUAGCGCAUAUGCGCACCUCUAUGCGUAAUACGAACGUUGGCGUUCGACAUGAGACUCACAACAGUUCCCUUUAGUGAGGGUUAAUU
modifications: 2'-F pyrimidines
B12: Group I clone 9 (random region) (ssRNA)
RNA: GGGAGACAAGACUAGACGCUCAACUUUCCUAGCGCACACGCGCACCUCUAUGCGUAAUACGAACGUUGGCGUUCGACAUGAGACUCACAACAGUUCCCUUUAGUGAGGGUUAAUU
modifications: 2'-F pyrimidines
B13: Group I clone 16 (random region) (ssRNA)
RNA: GGGAGACAAGACUAGACGCUCAACUUUCCUAGCGCAUAUGCGCACCUCUAUGCGUAAUACGAACGUCGGCGUUCGACAUGAGACUCACAACAGUUCCCUUUAGUGAGGGUUAAUU
modifications: 2'-F pyrimidines
B14: Group I clone 19 (random region) (ssRNA)
RNA: GGGAGACAAGACUAGACGCUCAACUUUCCUAGCGCACAUGCGCACCUCUACGCGUAAUACGAACGUUGACGUUCGACAUGAGACUCACAACAGUUCCCUUUAGUGAGGGUUAAUU
modifications: 2'-F pyrimidines
B15: Group I clone 27 (random region) (ssRNA)
RNA: GGGAGACAAGACUAGACGCUCAACUUUCCUAACGCACAUGCGCACCUCUAUGCGUAAUACGAACAGUGAGAUUCGACAUGAGACUCACAACAGUUCCCUUUAGUGAGGGUUAAUU
modifications: 2'-F pyrimidines
B16: Group I clone 13 (random region) (ssRNA)
RNA: GGGAGACAAGACUAGACGCUCAACUCUCCUAGUGCACAUGCGCACCUCUAUGCGUAAUACGAACGUUGGCGUUCGACAUGAGACUCACAACAGUUCCCUUUAGUGAGGGUUAAUU
modifications: 2'-F pyrimidines
B17: Group I clone 4 (random region) (ssRNA)
RNA: GGGAGACAAGACUAGACGCUCAACUCUCCUAACGCACAUGCGCACCUCUAUGCGUAAUACGAACGUUGGCGUUCGACAUGAGACUCACAACAGUUCCCUUUAGUGAGGGUUAAUU
modifications: 2'-F pyrimidines
B18: Group I clone 22 (random region) (ssRNA)
RNA: GGGAGACAAGACUAGACGCUCAACUUUCCUAAUGCACAUGCGCACCUCUAUGCGUAAUACGAACGUUGACGUUCGACAUGAGACUCACAACAGUUCCCUUUAGUGAGGGUUAAUU
modifications: 2'-F pyrimidines
B19: Group I clone 17 (random region) (ssRNA)
RNA: GGGAGACAAGACUAGACGCUCAACUUUGCUAGCGCACAUGCUCACCUCUAUGCGUAAUACGAACGUUGACGUUCGACAUGAGACUCACAACAGUUCCCUUUAGUGAGGGUUAAUU
modifications: 2'-F pyrimidines
B20: Group I clone 10 (random region) (ssRNA)
RNA: GGGAGACAAGACUAGACGCUCAACUUCCCUAGCGCACAUGCGUACCUCUAUGCGUAAUACGAACGUUGGCGUUCGACAUGAGACUCACAACAGUUCCCUUUAGUGAGGGUUAAUU
modifications: 2'-F pyrimidines
B21: Group I clone 20 (random region) (ssRNA)
RNA: GGGAGACAAGACUAGACGCUCAACUUUCCUAGCGCACAUGCGCACUUCUAUGCGUAAUACGAACGUUGGCGUUCGACAUGAGACUCACAACAGUUCCCUUUAGUGAGGGUUAAUU
modifications: 2'-F pyrimidines
B22: Group I clone 11 (random region) (ssRNA)
RNA: GGGAGACAAGACUAGACGCUCAACUUUGCUAGCGCACAUGCGCACCUCUAUGCGUAGUACGAACGUUGGCGUUCGACAUGAGACUCACAACAGUUCCCUUUAGUGAGGGUUAAUU
modifications: 2'-F pyrimidines
B23: Group I clone 18 (random region) (ssRNA)
RNA: GGGAGACAAGACUAGACGCUCAACUUUCCUAGCGCACAUGCGCACCUCUAUGCGUAAUACGAACGUAGACGUUCGACAUGAGACUCACAACAGUUCCCUUUAGUGAGGGUUAAUU
modifications: 2'-F pyrimidines
B24: Group I clone 2 (random region) (ssRNA)
RNA: GGGAGACAAGACUAGACGCUCAACUUUCCUAACGCACAUGCGCACCUCUAUGCGUAAUACGAACGUUGGCGUUCGACAUGAGACUCACAACAGUUCCCUUUAGUGAGGGUUAAUU
modifications: 2'-F pyrimidines
B25: orphan clone 4 (random region) (ssRNA)
RNA: GGGAGACAAGACUAGACGCUCAACUACGUUCCUUAUCCUCCCUUCAGGAACCUGUACACCACAUUGCUUCGACAUGAGACUCACAACAGUUCCCUUUAGUGAGGGUUAAUU
modifications: 2'-F pyrimidines
B26: orphan clone 5 (random region) (ssRNA)
RNA: GGGAGACAAGACUAGACGCUCAAUAUCAACAUUAGGGCUCCUUGGGGACCAGCGUCUCCUUGCAGCCCCGAUUCGACAUGAGACUCACAACAGUUCCCUUUAGUGAGGGUUAAUU
modifications: 2'-F pyrimidines
B27: orphan clone 2 (random region) (ssRNA)
RNA: GGGAGACAAGACUAGACGCUCAACUCCUCUAGCACCAUAUCCAAGCUACAACUUCACAACGACUCGGCCUUCGACAUGAGACUCACAACAGUUCCCUUUAGUGAGGGUUAAUU
modifications: 2'-F pyrimidines
B28: orphan clone 3 (random region) (ssRNA)
RNA: GGGAGACAAGACUAGACGCUCAACUACGAACUCAUGACACAAGGAUGCAAUCUCAUCCCGCCAGCCCUUCGACAUGAGACUCACAACAGUUCCCUUUAGUGAGGGUUAAUU
modifications: 2'-F pyrimidines
B29: orphan clone 6 (random region) (ssRNA)
RNA: GGGAGACAAGACUAGACGCUCAAGCUGACCACCGCCAACGCAACCUCCAAUGACUUGGAUCACCUAGACGAUUUCGACAUGAGACUCACAACAGUUCCCUUUAGUGAGGGUUAAUU
modifications: 2'-F pyrimidines
B30: Group I clone 8 (random region) (ssRNA)
RNA: GGGAGACAAGACUAGACGCUCAACUUUCGCUAGCGCACAUGCGCACCUCUAUGCGCAUAUACGAACGUUGGCGUUCGACAUGAGACUCACAACAGUUCCCUUUAGUGAGGGUUAAUU
modifications: 2'-F pyrimidines

Chain of prion protein PrP alpha-form, full-length mature, oxidized (P10279 25-241, one chain of several): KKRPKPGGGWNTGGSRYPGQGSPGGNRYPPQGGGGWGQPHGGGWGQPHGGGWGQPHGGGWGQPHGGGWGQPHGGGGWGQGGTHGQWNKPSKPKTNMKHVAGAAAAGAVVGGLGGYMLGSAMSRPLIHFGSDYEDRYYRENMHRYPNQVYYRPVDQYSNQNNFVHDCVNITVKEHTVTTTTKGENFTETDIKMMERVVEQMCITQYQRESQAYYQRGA

The series has as its target prion protein PrP alpha-form, full-length mature, oxidized (Bos taurus, UniProt P10279 P10279:25-241). Put plainly: EMSA. The conditions noted are these: tags: 6-octarepeat allele, Met-initiated, E. coli, untagged (Ni-NTA, SP-Sepharose, Superdex 75).
Consider B1, for which the binding result was “binds”. For B2, the binding result is recorded as “binds”.

On to B3, for which the binding result is listed as “binds”. In the case of B4, the binding result was “binds”.

Turning to B5, the binding result is on record as “binds”. As for B6, the entry is “binds”. The value for B7 was “binds”; that for B8 was “binds”. As for B9, the entry is “binds”; as for B10, “binds”; as for B11, “binds”. For B12, the binding result was “binds”. For the molecule B13, the binding result is reported as “binds”. As for B14, the entry is “binds”.

For the molecule B15, the binding result is “binds”. The value for B16 was “binds”; that for B17 was “binds”.

Consider B18, for which the binding result is “binds”. Regarding B19, the binding result is recorded as “binds”. As for B20, the entry is “binds”. The value for B21 was “binds”; that for B22 was “binds”. As for B23, the entry is “binds”. For the molecule B24, the binding result was “binds”. B25: the binding result is recorded as “binds”. The value for B26 was “binds”; that for B27 was “binds”; that for B28 was “binds”.

Regarding B29, the binding result is listed as “binds”. The value for B30 was “binds”.

For the origin of these results see patent US20030162225 (published 2003).
